From patent US8030017B2, “Thermostable luciferases and methods of production” (Promega Corporation, priority 1997, dated 2011)

What was measured:
[1] = Robotic quantitative screen of E. coli lysates: enzyme stability (tau) at elevated temperature; format: physicochemical; conditions: relative value; Control is Luc46-2H3 at 54° C. (=1)
Description: Two white assay plates (Labsystems #9502887) are obtained from the plate feeder and placed in the pipetter. The incubation plate from the shaker is placed in the pipetter, and the lid removed and placed on the nearby locator. Two daughter plates are made using the pipetting procedure (see “Create Pair of Daughter Plates from Incubation Plate”). Afterwards, the lid is replaced on the parent plate, and the plate is placed in a high temperature incubator. [ranging from 31° C. to about 65° C. depending on the clone.]
To begin the second set of measurements, the plate from the high temperature incubator is placed in the shaker to mix.
In the final set of measurements, the plate from the high temperature incubator is again placed in the shaker to mix.
(§1) The following criteria were used for screening purposes. The temperature chosen for the enzyme stability parameter was such that the parent enzyme would decay 100 to 1000 fold over 10 hours (see Table 1). Criteria 1 is achieved manually; data for criteria 2-6 is generated by robotic analysis. For all criteria, the maximum value as described is selected. • 1. In vivo screen. The brightest clones are selected at a given temperature. • 2. Expression/specific activity. The value for normalized luminescence is calculated as the ratio of luminescence to optical density. The value is reported as the ratio with the reference value. • 3. Enzyme stability. Measurements of normalized luminescence of the incubated samples (3 taken over about 15 hours) are fitted to In(L)=In(L0)−(t/τ), where L is normalized luminescence and t is time. τ is a measure of the enzyme stability. The value is reported as the ratio with the reference value, and the correlation coefficients are calculated. • 4. Substrate binding. Measurements of normalized luminescence with 1X and 0.02X are taken at the initial reading set, and 1X and 0.06X are taken at the 5 hour set. The ratio of the 0.02X:1X and 0.06X:1X gives the relative luminescence at 0.02X and 0.06X concentrations. These values, along with the relative luminescence at 1X (i.e., 1), are fitted to a Lineweaver-Burk plot to yield the Km:app,total for the substrates ATP, luciferin, and CoA. The values are reported as the inverse ratio with the reference value, and the correlation coefficients are calculated. • 5. Signal stability. The luminescence of the initial IX luminescent reactions are re-measured 3 additional times over about 15 hours. These values are fitted to In(L)=In(L0)−(t/τ) and the integral over t (15 hours) is calculated. Signal stability is then calculated as S=(1−int(L)/L0t)^2. The values are reported as the inverse ratio with the reference value, and the correlation coefficients are calculated. • 6. Composite fitness. The values of criteria 2 through 5 are combined into a single composite value of fitness (or commercial utility). This value is based on a judgment of the relative importance of the other criteria. This judgment is given below:
Calculate enzyme stability (τ): For each sample, use linear regression to fit In(L1x)=In(L0)−(t/τ) using the three luminescence measurements with 1X substrate concentrations (Plates 1, 5, 8). Also calculate the regression coefficient.
Calculate the reference-normalized values: For the criteria parameter of each sample, a reference-normalized value is determined by calculating the ratio or inverse ratio with the respective reference value. The reference-normalized values are Li/Lir, τ/τr, Kmr/Km:app,total, and Sr/S, where reference values are calculated from the equations of the appropriate reference surface.
“Enzyme stability” was determined by the rate of activity loss from cell lysates over 10 hours. In successive rounds of evolution the incubation temperature of the lysates was increased.
Robotic Automation: Robotic automation was used in the quantitative screens to accurately perform the large number of required quantitative assays on the cultured cells. […]

[2] = Michaelis-Menten constant for ATP of purified mutants; format: biochemical; conditions: purified enzyme
Text: (§2) Substrate binding was screened by measuring an apparent composite Km (see Example 2) for luciferin and ATP. […] The Km for luciferin rose while the Km for ATP declined (Table 3). The reason for this change is unknown, although it can be speculated that more efficient release of oxyluciferin or luciferin inhibitors could lead to more rapid enzyme turnover.
(§3) Protein purification: Four mutants that are described herein (Luc[T249M], Luc49-7C6, Luc78-0B10, and Luc90-1B5) were purified using a previously published procedure (Hastings et al., 1996).

[3] = Robotic quantitative screen of E. coli lysates: luminescence activity (Li), expression/specific activity; format: biochemical; conditions: relative value; Control is Luc46-2H3 at 54° C. (=1)
Description: A plate containing cells is retrieved from the carousel and placed on the shaker for 3-5 minutes to fully mix the cells. The cells tend to settle from solution upon standing.
To measure Optical Density (O.D.), the plate is moved from the shaker to the locator near the luminometer; the lid is removed and the plate placed into the luminometer. The O.D. is measured using a 620 nm filter.
To prepare a cell lysate, the plate of cells is first retrieved from the refrigerator and mixed on the shaker to resuspend the cells. A new plate from the carousel without a lid is placed in the reagent dispenser and 20 μl of Buffer A is added to each well. This is placed in the pipetting station.
The plate is then moved to the reagent dispenser to add 175 μl of Buffer B, and then mixed on the shaker for about 15 minutes or more. The combination of the freeze/thaw and Buffer B will cause the cells to lyse.
(§4) One daughter plate is placed in the luminometer and the 1X assay method is used. After the assay, the plate is placed in the ambient incubator, and the second daughter plate is placed in the luminometer. For the second plate, the 0.02X assay method is used. This plate is discarded, and the first plate is returned from the incubator to the luminometer. The repeat assay method is used (i.e., no reagent is injected). Afterwards, the plate is again returned to the ambient incubator.
1X Assay reagent: 5 μM Luciferin; 175 μM ATP; 20 mM Tricine, pH 8.0; 0.1 mM EDTA
as §1
Normalize luminescence data: For each measurement of luminescence in the eight daughter plates, the normalized luminescence is calculated by dividing the relative light units by the optical density of the original plate. […]

[4] = Michaelis-Menten constant for luciferin of purified mutants; format: biochemical; conditions: purified enzyme
Text: as §2, §3

[5] = Thermostability (half-life, retained activity) of luciferases incubated in aqueous solution at different temperatures; format: physicochemical; conditions: for Thermostability Of Luciferase Activity (Half-Life In Hours): purified enzyme
Text: As defined herein, a “thermostable” enzyme, e.g., a luciferase, or an enzyme which has “thermostability”, is an enzyme which under certain conditions, e.g., at certain temperature, in aqueous solution and/or for certain periods of time, has an increased retention of activity relative to a reference enzyme. For example, for a thermostable luciferase, a reference luciferase may be native wild-type luciferase or recombinant wild-type luciferase. Preferably, for beetle luciferases, the activity is luminescence under conditions of saturation with luciferin and ATP. One measure of thermostability of an enzyme is the half-life of the enzyme in an aqueous solution (the time over which 50% of the activity is lost) at a stated temperature.
as §3
[…] Enzyme stability was determined from diluted proteins incubated at different temperatures, and aliquots were removed at different time points. A linear regression of the natural log of the luminescence and time was calculated. Half-life was calculated as the 1n(0.5)/slope of the regression.

[6] = Robotic quantitative screen of E. coli lysates: signal stability (S), sustained enzymatic turnover; format: biochemical; conditions: inverse ratio with reference; Control is Luc46-2H3 at 54° C. (=1)
Description: as §4
The plate in the ambient incubator is returned to the luminometer and the repeat assay method is again used. The plate is returned afterwards to the ambient incubator.
The plate in the ambient incubator is returned to the luminometer and the repeat assay method is again used. The plate is discarded afterwards.
as §1
Calculate signal stability (S): For each sample, use linear regression to fit In(L)=In(L0)[…] using the four luminescence measurements of the initial microplate with 1X substrate concentrations (Plates 1, 3, 4, and 7). Also calculate the regression coefficient. From the calculated values of T and L0, calculate the integral of luminescence by int(L)=τL0(1−exp(−tf/τ)), where tf is the average time of the last measurement (e.g., 15 hours). The signal stability is calculated as S=(1−int(L)/Litf)^2, where Li is the initial measurement of normalized luminescence with 1× substrate concentration (Plate 1).
[Note: To correct for evaporation, an equation S=(1+K−int(L)/Litf)^2, may be used where 1/K=2(relative change of liquid volume at tf).]
Calculate the reference-normalized values: For the criteria parameter of each sample, a reference-normalized value is determined by calculating the ratio or inverse ratio with the respective reference value. […]

B1: Luc49-7C6: mutant luciferase, SEQ ID NO:14 (protein)
chain: MADKNILYGPEPFYPLADGTAGEQMFYALSRYADISGCIALTNAHTKENVLYEEFLKLSCRLAESFKKYGLKQNDTIAVCSENGLQFFLPIIASLYLGIIAAPVSDKYIERELIHSLGIVKPRIIFCSKNTFQKVLNVKSKLKYVETIIILDLNEDLGGYQCLNNFISQNSDINLDVKKFKPYSFNRDDQVALVMFSSGTTGVSKGVMLTHKNIVARFSLAKDPTFGNAINPTTAILTVIPFHHGFGMMTTLGYFTCGFRVVLMHTFEEKLFLQSLQDYKVESTLLVPTLMAFLAKSALVEKYDLSHLKEIASGGAPLSKEIGEMVKKRFKLNFVRQGYGLTETTSAVLITPNNDVRPGSTGKIVPFHAVKVVDPTTGKILGPNEPGELYFKGDMIMKGYYNNEEATKAIINKDGWLRSGDIAYYDNDGHFYIVDRLKSLIKYKGYQVAPAEIEGILLQHPYIVDAGVTGIPDEAAGELPAAGVVVQTGKYLNEQIVQNFVSSQVSTAKWLRGGVKFLDEIPKGSTGKIDRKVLRQMFEKHTNG
modifications: Mutant luciferase
- Enzyme stability (tau) [1]: 1.9
- Km [2]: 14 µM
- Luminescence (Li) [3]: 1.12
- Km [4]: 0.99 µM
- thermostability compared with parent enzyme ([5]; 4° C., times of less than 15 days (FIG. 49)): not distinguishable from the parent enzyme
- half-life ([5]; 22° C. (FIGS. 9, 10)): 1540 h
- Thermostability Of Luciferase Activity (Half-Life In Hours) ([5]; 37° C.): 68 h
- half-life calculated from regression of log luminescence ([5]; 50° C. (FIG. 7)): 100.5 hours
- Thermostability Of Luciferase Activity (Half-Life In Hours) ([5]; 50° C.): 31 h
- half-life calculated from regression of log luminescence ([5]; 60° C. (FIGS. 6, 8)): 2.9 hours
- Thermostability Of Luciferase Activity (Half-Life In Hours) ([5]; 60° C.): 6.3 h
- Thermostability Of Luciferase Activity (Half-Life In Hours) ([5]; Room Temperature (about 25° C.)): 430 h
- Signal stability (S) [6]: 1.01

B2: 49-7a5: mutant luciferase, SEQ ID NO:17 (protein)
chain: MEDKNILYGPEPFYPLADGTAGEQMFYALSRYADISGCIALTNAHTKENVLYEEFLKLSCRLAESFKKYGLKQNDTIAVCSENGLQFFLPIIASLYLGIIAAPVSDKYIERELIHSLGIVKPRIIFCSKNTFQKVLNVKSKLKYVETIIILDLNEDLGGYQCLNNFISQNSDINLDVKKFKPYSFNRDDQVALVMFSSGTTGVSKGVMLTHKNIVARFSIAKDPTFGNAINPTTAILTVIPFHHGFGMMTTLGYFTCGFRVVLMHTFEEKLFLQSLQDYKVESTLLVPTLMAFLAKSALVEKYDLSHLKEIASGGAPLSKEIGEMVKKRFKLNFVRQGYGLTETTSAVLITPNNDVRPGSTGKIVPFHAVKVVDPTTGKILGPNETGELYFKGDMIMKGYYNNEEATKAIINKDGWLRSGDIAYYDNDGHFYIVDRLKSLIKYKGYQVAPAEIEGILLQHPYIVDAGVTGIPDEAAGELPAAGVVVQTGKYLNEQIVQNFVSSQVSTAKWLRGGVKFLDEIPKGSTGKIDRKVLRQMFEKHTNG
modifications: Mutant luciferase
- Enzyme stability (tau) [1]: 1.44
- Luminescence (Li) [3]: 1.08
- Signal stability (S) [6]: 0.99
